From the supplement of paper PMC9170038

How the values were obtained:
[1] = system: MS2 coat protein; test: apparent KD of MS2 coat protein, switch OFF state (with FMN for OFF switches, without FMN for ON switches); designed switch direction (-1 OFF switch, 1 ON switch): -1; higher = weaker reporter binding; conditions: FMN input: 0 or 200 uM; Eterna round: R93 (includes R88 designs)
In short: (§1)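 With or without constant ligand, designed RNA switches in 100 mM Tris-HCl pH 7.5, 80 mM KCl and 4 mM MgCl2 were titrated with SNAP-549-labelled MS2 coat protein. Concentrations went up in twofold steps from 0.7 or 1.5 nM to 3 µM. The switches had been transcribed on-chip from Illumina sequencing clusters, and apparent KD is the per-design median of normalised cluster binding-curve fits.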

[2] = system: MS2 coat protein; test: apparent KD of MS2 coat protein, switch ON state; designed switch direction (-1 OFF switch, 1 ON switch): -1; higher = weaker reporter binding; conditions: FMN input: 0 or 200 uM; Eterna round: R93 (includes R88 designs)
In short: as §1

Sequence	apparent KD of MS2 coat protein [1]	apparent KD of MS2 coat protein [2]
AAAAAUGGAGGAUAUACAUGAGGAUCACCCAUGUGUAAAAAAAAUUACACAAAAGAAAGUAGAAGGCCAUAAAA [Ex 3 Warm]	102 nM	59.7 nM
AAAAAUGGAGGAUAUACAUGAGGAUCACCCAUGUGUAACUAUACUAAGCACAAACCACGUAGAAGGCCAAAAAA [Gilly Gone Silly 11 - Jieux - Exclusion 3]	78.3 nM	51.7 nM
AAAAAUGGAGGAUAUACAUGAGGAUCACCCAUGUGUGACUAUACUAUGUGCUCUUCAGGUAGAAGGCCAAAAAA [Gilly Gone Silly 19 - Jieux - Exclusion 3]	249 nM	44.3 nM
AAAAAUGGAGGAUAUACAUGAGGAUCACCCAUGUUAGAACAAAAAAAAGGGAAAGAAAGUAGAAGGCCAUAAAA [Ex 3 May 25]	49.1 nM	34.7 nM
AAAACACAUGAGGAUCACCCAUGUGAGGAUAUCGUGCAGUAGACGAAAGUCUACUGCACGAGAAGGCACAAGGA [Tweaking Brourd]	50.2 nM	33 nM
AAAACACAUGAGGAUCACCCAUGUGAGGAUAUGCGAAAAAAAAAAAAAAAAAAAAAACGCAGAAGGCACAUAAA [jn_teaneck]	43.5 nM	23.6 nM
AAAACACAUGAGGAUCACCCAUGUGAGGAUAUGCUAUGGAAAUAAAAAAUAAAACAUAGCAGAAGGCGCAGGAA [Mat - Exclusion 1 - Eli mod - D47]	29.1 nM	25.2 nM
AAAACGUCAGGAUAUACAGAAGAGAUCACAAAAAAAAAAAAACAUGAGGAUCACCCAUGUAGAAGGGACAAAAA [Ex2 Malc#2]	115 nM	111 nM
AAAACUAGAGGAUAUACGAACAUGUCAAAAGACGUGAAGGGACAUGAGGAUCACCCAUGUAGAAGGCUAGAAAA [JL Stem Breaker 11]	71.9 nM	55.6 nM
AAAAGCAGAGGAUAUACAUAAUUAUGACGAAAGUCAUAAAAACAUGAGGAUCACCCAUGUAGAAGGCUGCAAAA [MOD of Meechl's MS2 Ex2 (MS2 riboswitches - Exlclusion 2)]	28.1 nM	24.9 nM
AAAAGGGCAGGAUAUGCGUACUCACGGAAAAACUGGAUGGUACAUGAGGAUCACCCAUGUAGAAGGGCUAAAAA [Dora Explored 17 - Jieux - Exclusion 2]	40.9 nM	57.5 nM
AAAAGGUCAGGAUAUGCCCACCAGGAAAAAAAACCAGGUGGGCAGAAGGGACAUGAGGAUCACCCAUGUAAAAA [Excls4-I]	107 nM	59.6 nM
AAAAGGUGAGGAUAUACGAAAAAAAAAAAAAAAAAAAAAAAGUAGAAGGCACAUGAGGAUCACCCAUGUAAAAA [LROPPY Exclusion 4 - v01_deltaG=2.54]	41.3 nM	31.3 nM
AAAAUAAAAGGAUAUAAAAAUAAAAGUCAGGAUAUAGGAAACUAGAAGGGACAUGAGGAUCACCCAUGUAAAAU [Meechl Ex4 R2 m1]	33.8 nM	47.8 nM
AAAAUACAUGAGGAUCACCCAUGUGAGGAUAUGAGAAAGGGAAUAAAAUAACCCAAACUCAGAAGGCACAAAAA [Ex 1 May 26]	45.9 nM	35.9 nM
AAACCACAUGAGGAUCACCCAUGUCAGGAUAUGCUAUGGAAAAAUAAAAUAAAACAUAGCAGAAGGGACAAAAA [Mat - Exclusion 1 - Eli mod - D34]	52 nM	31.1 nM
AAACUACUAGGAUAUACAACGGUGUCCUAACUACUAAGAAAACAUGAGGAUCACCCAUGUAGAAGGAGUAAUAA [Cearused]	78.2 nM	35.8 nM
AAACUGGUAGGAUAUGCUAGGGCGAUUAAUACGCCGAUAGUACAUGAGGAUCACCCAUGUAGAAGGGCCAGAAA [Mat - Exclusion 2 - JL mod - D65]	23.6 nM	30.8 nM
AAAGGACAUGAGGAUCACCCAUGUGAGGAUAUCGGAAAAGGAAAAAAAAAAAAGAAGACGAGAAGGCACACCAA	55.6 nM	38.8 nM
AAAGGACGAGGAUAUACAUGAGGAUCACCCAUGUAAAAAACAUAAUAAAAGAAUAUAUGUAGAAGGCGUCCAAA [Ruby 59]	17.8 nM	18.7 nM
AAAGGAUCAGGAUAUGCGUGGAAAAAGUGUAUUCAAAAAAAACAUGAGGAUCACCCAUGUAGAAGGGAUCCAAA [Normal (20/19)]	546 nM	140 nM
AAAUACUAAGGAUAUACAUGAGGAUCACCCAUGUACAAACCCGUGGAACGGAUCCUUAGUAGAAGGUGGACGAA [Onquerar]	13.9 nM	13.6 nM

Sequence	apparent KD of MS2 coat protein [1]	apparent KD of MS2 coat protein [2]
AAAUCAGUAGGAUAUACGAUUUGGUACUAGACCGAGGAACCACAUGAGGAUCACCCAUGUAGAAGGACUAGAUA [EX2 Malc#21]	12.9 nM	17.2 nM
AAAUGACAUGAGGAUCACCCAUGUCAGGAUAUGACUUGAAAAAAAAAAAAAAAACAUGUCAGAAGGGACAUGGG [Design 50: Sub-opt FB]	9.45 nM	15.7 nM
AAAUGACAUGAGGAUCACCCAUGUCAGGAUAUGACUUGAAAAAUAAAAUAAAAACAUGUCAGAAGGGACAUGGA [Design 51: Sub-opt GB]	20.8 nM	23.9 nM
AAAUGACUAGGAUAUACAUGAGGAUCACCCAUGUGUUAAAAUAAAUACACAAAAGAAAGUAGAAGGAGUCAAAA [Ex 3 May 15]	59.7 nM	22.3 nM
AAAUUGUCAGGAUAUCUUAGAACUGUCAAAGACAGGAGCUAAGAGAAGGGACAUGAGGAUCACCCAUGUAAAAC [May 90]	88.5 nM	64 nM
AAAUUGUCAGGAUAUCUUAGAAUAGUCAAAGACUAGAGCUAAGAGAAGGGACAUGAGGAUCACCCAUGUAAAAC [May 91]	56.6 nM	61.8 nM
AACAAACAUGAGGAUCACCCAUGUCAGGAUAUGCAAACAACAAACAACAAACAACAAAGCAGAAGGGACAACAA [e1-3]	25.1 nM	19.9 nM
AACAAACAUGAGGAUCACCCAUGUCAGGAUAUGCAAACAACAAACAACAAACAACAAAGCAGAAGGGACGACAA [63%, Olong, 3]	37.5 nM	21.7 nM
AACAAUACAGGAUAUACAUGAGGAUCACCCAUGUGAGAAUUAAGUGGCGUACCACAAGGUAGAAGGGUAAUGGA [Ruby 2]	34.7 nM	22.4 nM
AACAGUACAGGAUAUACAUGAGGAUCACCCAUGUAAAAAUAAAAGGGAAACUCAAAAAGUAGAAGGGUACUGGA [Moding Maslow revisited (73) 13]	78.6 nM	117 nM
AACAGUACAGGAUAUACAUGAGGAUCACCCAUGUAGGGAUAAAGUGGCGUACCACAAAGUAGAAGGGUACUGGA [Moding Maslow revisited (73) 4]	142 nM	30.6 nM
AACAGUACAGGAUAUACAUGAGGAUCACCCAUGUGAAAAUUAAGUGGCGUACCACAAUGUAGAAGGGUACUGGA [Moding Maslow Revisited (73) 24]	83.7 nM	110 nM
AACAGUACAGGAUAUACAUGAGGAUCACCCAUGUGAGAAUAAAGUGGCGUACCACAAAGUAGAAGGGUACUGGA [Mat - Exclusion 3 - JL mod - D20]	148 nM	26.7 nM
AACAUGUAAGGAUAUAGAAGAAAAGAAAAGAAAGAAAAGAACUAGAAGGUACAUGAGGAUCACCCAUGUAAGAA [EteRNA is fun!]	16.2 nM	33.1 nM
AACAUGUAAGGAUAUGAAAGAAAAGAAAAGAAAGAAAAGAAUCAGAAGGUACAUGAGGAUCACCCAUGUAAGAA [EteRNA is fun!]	26.7 nM	34.7 nM
AACCAACAUGAGGAUCACCCAUGUCAGGAUAUGCAAAUAACAAACAACAAACAACAAAGCAGAAGGGACAACAA [Mat - Exclusion 1 - Eli mod - D50]	20.5 nM	15.4 nM
AACUAACAUGAGGAUCACCCAUGUCAGGAUAUGCAAAGAACGAUCGAACGAACGAUAAGCAGAAGGGACAAAAA [Amethyst 96]	42.1 nM	29.8 nM
AACUGACAUGAGGAUCACCCAUGUCAGGAUAUGACUUGAAAAAUAAAAUAAAAACAUGUCAGAAGGGACAUGGG [Design 54 :P Sub-opt H]	18.9 nM	20.2 nM
AACUGACAUGAGGAUCACCCAUGUCAGGAUAUGACUUGACGAAAAAAAACACGUCAUGUCAGAAGGGACAUGGA [Design 89: Sub-opt Z]	37.3 nM	21.8 nM
AACUGACAUGAGGAUCACCCAUGUCAGGAUAUGACUUGAUAGAAAAUAAAAUAUCAUGUCAGAAGGGACAUGAA [Design 61: Sub-opt KB]	12.4 nM	14.3 nM
AACUGACAUGAGGAUCACCCAUGUCAGGAUAUGAUUUGACGAAAUAAAAUAAGUCAUAUCAGAAGGGACAUGGG [Design 83: Sub-opt VB]	21.2 nM	26.2 nM
AACUGCGCAGGAUAUACAUGAGGAUCACCCAUGUAAAGAAAAGAAAGAUCCGAAGAAAGUAGAAGGGCGUGGAA [Variant 2 of Mod 1 of Ex3 sub 3, by Tesla's Dusciple Round 1]	56.3 nM	43.2 nM
